In this experiment the target is T1, Clostridium difficile toxin A (TcdA) (Clostridium difficile, UniProt P16154 1-2710).
T1 construct: also called TxA; rTcdA
As to the kind of experiment: binding kinetics, method not stated.

T1 sequence (P16154 whole entry): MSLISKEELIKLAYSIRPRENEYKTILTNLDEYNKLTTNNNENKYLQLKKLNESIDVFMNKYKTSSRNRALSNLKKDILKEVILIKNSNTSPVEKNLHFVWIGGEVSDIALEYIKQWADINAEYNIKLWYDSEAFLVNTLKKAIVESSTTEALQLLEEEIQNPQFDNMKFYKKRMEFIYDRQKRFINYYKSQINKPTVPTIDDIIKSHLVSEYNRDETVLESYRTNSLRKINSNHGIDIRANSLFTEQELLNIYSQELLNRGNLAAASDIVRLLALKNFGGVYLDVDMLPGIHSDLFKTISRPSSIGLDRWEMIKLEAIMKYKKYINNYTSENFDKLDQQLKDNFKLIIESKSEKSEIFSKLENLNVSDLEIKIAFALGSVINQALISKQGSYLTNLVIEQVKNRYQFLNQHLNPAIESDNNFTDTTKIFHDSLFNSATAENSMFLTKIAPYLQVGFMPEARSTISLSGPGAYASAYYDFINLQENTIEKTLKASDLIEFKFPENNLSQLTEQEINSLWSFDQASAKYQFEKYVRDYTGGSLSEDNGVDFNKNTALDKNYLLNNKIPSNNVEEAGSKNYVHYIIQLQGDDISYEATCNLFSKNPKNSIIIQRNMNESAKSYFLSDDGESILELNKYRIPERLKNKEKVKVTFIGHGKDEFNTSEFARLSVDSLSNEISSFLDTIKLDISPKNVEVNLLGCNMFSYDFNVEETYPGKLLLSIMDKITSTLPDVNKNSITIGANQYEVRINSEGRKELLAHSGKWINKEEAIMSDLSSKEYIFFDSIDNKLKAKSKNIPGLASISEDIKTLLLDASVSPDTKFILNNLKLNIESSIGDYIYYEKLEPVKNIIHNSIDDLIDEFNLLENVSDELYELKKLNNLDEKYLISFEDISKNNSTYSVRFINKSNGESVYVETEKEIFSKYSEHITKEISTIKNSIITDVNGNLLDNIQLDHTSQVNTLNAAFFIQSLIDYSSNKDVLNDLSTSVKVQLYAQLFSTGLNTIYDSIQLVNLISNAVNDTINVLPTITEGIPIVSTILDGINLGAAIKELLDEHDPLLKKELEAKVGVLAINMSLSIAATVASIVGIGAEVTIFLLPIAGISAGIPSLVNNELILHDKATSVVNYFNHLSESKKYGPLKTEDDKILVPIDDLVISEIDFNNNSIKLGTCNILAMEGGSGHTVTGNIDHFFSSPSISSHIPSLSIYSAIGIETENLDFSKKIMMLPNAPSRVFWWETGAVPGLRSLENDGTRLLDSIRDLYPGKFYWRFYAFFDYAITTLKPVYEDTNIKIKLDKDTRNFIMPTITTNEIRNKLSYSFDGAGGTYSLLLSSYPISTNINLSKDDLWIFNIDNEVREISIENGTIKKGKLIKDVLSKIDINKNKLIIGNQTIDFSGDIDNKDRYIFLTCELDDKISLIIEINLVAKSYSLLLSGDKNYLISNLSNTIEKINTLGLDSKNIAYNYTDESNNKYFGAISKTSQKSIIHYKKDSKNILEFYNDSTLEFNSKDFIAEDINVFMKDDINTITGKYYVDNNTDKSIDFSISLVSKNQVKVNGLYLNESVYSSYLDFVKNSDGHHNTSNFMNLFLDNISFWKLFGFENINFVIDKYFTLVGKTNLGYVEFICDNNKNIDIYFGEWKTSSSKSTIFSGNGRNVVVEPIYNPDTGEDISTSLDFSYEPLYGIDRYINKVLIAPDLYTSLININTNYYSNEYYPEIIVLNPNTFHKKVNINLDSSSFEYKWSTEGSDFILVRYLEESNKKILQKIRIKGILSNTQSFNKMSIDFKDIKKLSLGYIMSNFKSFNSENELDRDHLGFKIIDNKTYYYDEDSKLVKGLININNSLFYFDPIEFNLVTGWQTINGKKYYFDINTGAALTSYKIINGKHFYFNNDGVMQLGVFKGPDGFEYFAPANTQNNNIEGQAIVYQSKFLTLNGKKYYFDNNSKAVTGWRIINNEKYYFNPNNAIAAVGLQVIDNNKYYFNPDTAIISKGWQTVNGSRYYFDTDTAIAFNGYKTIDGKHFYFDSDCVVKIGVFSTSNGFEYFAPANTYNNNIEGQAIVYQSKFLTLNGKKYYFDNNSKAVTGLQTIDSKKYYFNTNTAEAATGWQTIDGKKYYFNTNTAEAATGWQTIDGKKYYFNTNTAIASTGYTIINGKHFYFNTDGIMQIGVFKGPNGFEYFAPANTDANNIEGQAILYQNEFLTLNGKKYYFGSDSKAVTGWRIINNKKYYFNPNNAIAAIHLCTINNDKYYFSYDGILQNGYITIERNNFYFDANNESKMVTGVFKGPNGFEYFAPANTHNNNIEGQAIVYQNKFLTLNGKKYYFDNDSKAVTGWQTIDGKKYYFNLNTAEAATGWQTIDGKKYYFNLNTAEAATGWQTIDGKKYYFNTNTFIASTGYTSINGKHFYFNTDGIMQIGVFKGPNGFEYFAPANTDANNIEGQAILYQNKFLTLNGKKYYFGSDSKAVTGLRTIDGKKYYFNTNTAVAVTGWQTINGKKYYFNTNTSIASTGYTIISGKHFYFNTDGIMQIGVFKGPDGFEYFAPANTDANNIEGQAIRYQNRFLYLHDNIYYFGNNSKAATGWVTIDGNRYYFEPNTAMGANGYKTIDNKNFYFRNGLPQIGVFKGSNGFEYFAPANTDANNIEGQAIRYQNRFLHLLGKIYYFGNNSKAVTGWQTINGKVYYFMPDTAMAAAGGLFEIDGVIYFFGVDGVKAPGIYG

B1: AA6 VHH peptide monomer (VHH)
VHH: QLQLVETGGGLVQPGGSLRLSCAASGFTFSDYVMTWVRQAPGKGPEWIATINTDGSTMRDDSTKGRFTISRDNAKNTLYLQMTSLKPEDTALYYCARGRVISASAIRGAVRGPGTQVTVSS
For B1, the equilibrium dissociation constant (Kd) (in general, the concentration at which binding is half-saturated) stood at 19.7 nM; the koff (in general, the rate constant with which the complex falls apart) is 0.000692 s⁻¹; the kon (in general, the second-order rate constant of association) turned out to be 35200 M⁻¹ s⁻¹.

B2: ABAB binding agent (AH3/5D/AA6/E3), tetra-specific, tetrameric VHH binding agent (designed binder)
chain: QVQLVETGGGLVQPGGSLRLSCAASGFTLDYSSIGWFRQAPGKEREGVSCISSSGDSTKYADSVKGRFTTSRDNAKNTVYLQMNSLKPDDTAVYYCAAFRATMCGVFPLSPYGKDDWGKGTLVTVSSGGGGSGGGGSGGGGSQVQLVESGGGLVQPGGSLRLSCEASGFTLDYYGIGWFRQPPGKEREAVSYISASARTILYADSVKGRFTISRDNAKNAVYLQMNSLKREDTAVYYCARRRFSASSVNRWLADDYDVWGRGTQVAVSSGGGSGGGSGGGSGGGSQLQLVETGGGLVQPGGSLRLSCAASGFTFSDYVMTWVRQAPGKGPEWIATINTDGSTMRDDSTKGRFTISRDNAKNTLYLQMTSLKPEDTALYYCARGRVISASAIRGAVRGPGTQVTVSSGGGGSGGGGSGGGGSQVQLVESGGGLVQTGGSLRLSCASSGSIAGFETVTWSRQAPGKSLQWVASMTKTNNEIYSDSVKGRFIISRDNAKNTVYLQMNSLKPEDTGVYFCKGPELRGQGIQVTVSS
notes: also called r-ABAB; recombinant ABAB
The molecule B2 yielded a Kd of 0.002 nM, a koff of 1.21e-06 s⁻¹ and a kon of 696000 M⁻¹ s⁻¹.

Values taken from patent US20230340087A1 (published 2023).
